Measurements as given in US20120034160A1 (AbbVie / Abbott, published 2012).

T1: Recombinant Human IL-17 (human, UniProt Q16552 20-155, limits assumed)
T1 construct: Bought reagent
T1 sequence (looked up): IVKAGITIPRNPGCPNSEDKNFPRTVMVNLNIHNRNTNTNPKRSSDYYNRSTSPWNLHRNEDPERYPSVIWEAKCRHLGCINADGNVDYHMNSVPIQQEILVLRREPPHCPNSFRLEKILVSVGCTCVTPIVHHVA

T2: Recombinant Human IL-17 (human, UniProt Q16552 20-155, limits assumed)
T2 construct: bought reagent
T2 sequence (looked up): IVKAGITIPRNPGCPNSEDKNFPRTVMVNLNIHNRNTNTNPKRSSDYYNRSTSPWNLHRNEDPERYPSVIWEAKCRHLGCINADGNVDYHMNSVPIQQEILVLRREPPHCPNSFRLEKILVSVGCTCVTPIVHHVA

B1: AB275 (antibody, human IgG1, kappa, V domains shown)
VH: EVQLVQSGAEVKKPGESVKISCKASGGSFRSYGISWVRQAPGQGLEWMGGITHFFGITDYAQKFQGRVTITADESTTTAYMELSGLTSDDTAVYYCAREPNDFWNGYYDTHDFDSWGQGTTVTVSS
VL: EIVLTQSPDFQSVTPKEKVTITCRASQNIGSELHWYQQKPDQSPKLLIKYASHSISGVPSRFSGSGSGTDFTLTINGLEAEDAATYYCHQSDTLPHTFGQGTKVDIKR
notes: Parent antibody
B2: AB275 (antibody, human IgG1, kappa, V domains shown)
VH: EVQLVQSGAEVKKPGESVKISCKASGGSFRSYGISWVRQAPGQGLEWMGGITHFFGITDYAQKFQGRVTITADESTTTAYMELSGLTSDDTAVYYCAREPNDFWNGYYDTHDFDSWGQGTTVTVSS
VL: EIVLTQSPDFQSVTPKEKVTITCRASQNIGSELHWYQQKPDQSPKLLIKYASHSISGVPSRFSGSGSGTDFTLTINGLEAEDAATYYCHQSDTLPHTFGQGTKVDIKR
notes: constants by vectors: V1 wt hIgG1, V2 kappa

Legend:
[1] = biological target: T1, Recombinant Human IL-17; experiment: Biacore SPR
Description: (§1) The BIACORE assay (Biacore, Inc, Piscataway, N.J.) determines the affinity of antibodies or DVD-Ig with kinetic measurements of on-rate and off-rate constants. Binding of antibodies or DVD-Ig to a target antigen (for example, a purified recombinant target antigen) was determined by surface plasmon resonance-based measurements with a Biacore® 1000 or 3000 instrument (Biacore® AB, Uppsala, Sweden) using running HBS-EP (10 mM HEPES [pH 7.4], 150 mM NaCl, 3 mM EDTA, and 0.005% surfactant P20) at 25° C. All chemicals were obtained from Biacore® AB (Uppsala, Sweden) or otherwise from a different source as described in the text. For example, approximately 5000 RU of goat anti-mouse IgG, (Fcγ), fragment specific polyclonal antibody (Pierce Biotechnology Inc, Rockford, Ill.) diluted in 10 mM sodium acetate (pH 4.5) was directly immobilized across a CM5 research grade biosensor chip using a standard amine coupling kit according to manufacturer's instructions and procedures at 25 μg/ml. Unreacted moieties on the biosensor surface were blocked with ethanolamine. Modified carboxymethyl dextran surface in flowcell 2 and 4 was used as a reaction surface. Unmodified carboxymethyl dextran without goat anti-mouse IgG in flow cell 1 and 3 was used as the reference surface. For kinetic analysis, rate equations derived from the 1:1 Langmuir binding model were fitted simultaneously to association and dissociation phases of all eight injections (using global fit analysis) with the use of Biaevaluation 4.0.1 software. Purified antibodies or DVD-Ig were diluted in HEPES-buffered saline for capture across goat anti-mouse IgG specific reaction surfaces. Antibodies or DVD-Ig to be captured as a ligand (25 μg/ml) were injected over reaction matrices at a flow rate of 5 μl/min. The association and dissociation rate constants, kₒₙ (M⁻¹s⁻¹) and koff (s⁻¹) were determined under a continuous flow rate of 25 μl/min. Rate constants were derived by making kinetic binding measurements at different antigen concentrations ranging from 10−200 nM. The equilibrium dissociation constant (M) of the reaction between antibodies or DVD-Igs and the target antigen was then calculated from the kinetic rate constants by the following formula: KD=koff/kₒₙ. Binding was recorded as a function of time and kinetic rate constants are calculated.

[2] = biological target: T1, Recombinant Human IL-17; experiment: cell-based or functional assay
[3] = biological target: T1, Recombinant Human IL-17; experiment: Biacore SPR; later run, parent printed with DVD1639-DVD1648; kon 4.70E+06, koff 8.50E-05
Description: (§2) The BIACORE assay (Biacore, Inc, Piscataway, N.J.) determines the affinity of antibodies or DVD-Ig with kinetic measurements of on-rate and off-rate constants. Binding of antibodies or DVD-Ig to a target antigen (for example, a purified recombinant target antigen) was determined by surface plasmon resonance-based measurements with a Biacore® 1000 or 3000 instrument (Biacore® AB, Uppsala, Sweden) using running HBS-EP (10 mM HEPES [pH 7.4], 150 mM NaCl, 3 mM EDTA, and 0.005% surfactant P20) at 25° C. All chemicals were obtained from Biacore® AB (Uppsala, Sweden) or otherwise from a different source as described in the text. […] The association and dissociation rate constants, kₒₙ (M⁻¹s⁻¹) and koff (s⁻¹) were determined under a continuous flow rate of 25 μl/min. […] The equilibrium dissociation constant (M) of the reaction between antibodies or DVD-Igs and the target antigen was then calculated from the kinetic rate constants by the following formula: KD=koff/kₒₙ. Binding was recorded as a function of time and kinetic rate constants are calculated.

[4] = biological target: T2, Recombinant Human IL-17; experiment: Biacore SPR
Description: as §1

[5] = biological target: T2, Recombinant Human IL-17; experiment: Biacore SPR; first run, parent printed with DVD1282-DVD1291; kon 2.80E+03, koff 2.40E-05
Description: as §2

| Binder | koff [1] | kon [1] | IL-17 Neutralization Assay EC50 [2] | Kd [3] | Kd [4] | Kd [5] |
| --- | --- | --- | --- | --- | --- | --- |
| B1 | 8.5e-05 s⁻¹ | 4.7e+06 M⁻¹ s⁻¹ | 0.0032 nM | 0.018 nM | – | – |
| B2 | – | – | – | – | 0.019 nM | 8.8 nM |
